Reference: patent WO2011147834A1 (dated 2011)
Values joined by “and” are separate entries in the source; they are usually repeats but may differ in a detail not shown here. Equal values may be shown once.

Tests used:
rabbit CD19 = target: T1, rabbit CD19 (rabbit, UniProt G1TWR4 20-543); assay: FACS on B-cells of the respective species
T1 construct: whole, on cells
T1 sequence: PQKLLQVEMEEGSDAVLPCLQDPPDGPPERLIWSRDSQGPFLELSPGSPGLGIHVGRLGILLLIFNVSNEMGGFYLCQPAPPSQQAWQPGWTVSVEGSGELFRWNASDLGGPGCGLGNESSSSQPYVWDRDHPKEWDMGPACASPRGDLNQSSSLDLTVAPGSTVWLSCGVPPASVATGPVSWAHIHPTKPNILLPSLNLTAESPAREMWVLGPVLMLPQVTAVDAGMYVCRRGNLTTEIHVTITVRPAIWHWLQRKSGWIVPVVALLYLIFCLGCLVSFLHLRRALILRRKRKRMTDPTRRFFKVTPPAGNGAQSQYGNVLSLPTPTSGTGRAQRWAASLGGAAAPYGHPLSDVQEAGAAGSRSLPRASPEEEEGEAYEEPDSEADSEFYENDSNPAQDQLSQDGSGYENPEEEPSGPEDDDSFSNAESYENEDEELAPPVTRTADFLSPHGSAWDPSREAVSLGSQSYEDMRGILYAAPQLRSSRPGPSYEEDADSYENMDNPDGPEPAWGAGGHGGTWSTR

cynomolgus CD19 = target: T2, cynomolgus CD19 (cynomolgus, UniProt A0A2K5W8L9 20-557); assay: FACS on B-cells of the respective species
T2 construct: whole, on cells
T2 sequence: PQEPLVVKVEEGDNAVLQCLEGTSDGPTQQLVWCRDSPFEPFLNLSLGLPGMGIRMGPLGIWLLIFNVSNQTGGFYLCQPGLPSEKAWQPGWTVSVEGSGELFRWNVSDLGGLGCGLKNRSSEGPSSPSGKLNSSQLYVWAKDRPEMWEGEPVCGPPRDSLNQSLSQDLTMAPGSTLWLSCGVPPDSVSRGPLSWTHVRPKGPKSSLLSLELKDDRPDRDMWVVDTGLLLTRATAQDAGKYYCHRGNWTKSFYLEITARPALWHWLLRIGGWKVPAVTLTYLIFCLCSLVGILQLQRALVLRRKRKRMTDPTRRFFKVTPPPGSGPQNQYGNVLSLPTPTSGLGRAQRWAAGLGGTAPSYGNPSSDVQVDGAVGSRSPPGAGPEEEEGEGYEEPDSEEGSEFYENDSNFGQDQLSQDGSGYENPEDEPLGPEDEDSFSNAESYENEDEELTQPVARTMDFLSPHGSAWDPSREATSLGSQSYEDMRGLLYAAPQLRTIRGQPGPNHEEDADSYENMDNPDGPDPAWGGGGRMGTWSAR

mouse CD19 = target: T3, mouse CD19 (mouse, UniProt P25918 19-547); assay: FACS on B-cells of the respective species
T3 construct: whole, on cells
T3 sequence (looked up): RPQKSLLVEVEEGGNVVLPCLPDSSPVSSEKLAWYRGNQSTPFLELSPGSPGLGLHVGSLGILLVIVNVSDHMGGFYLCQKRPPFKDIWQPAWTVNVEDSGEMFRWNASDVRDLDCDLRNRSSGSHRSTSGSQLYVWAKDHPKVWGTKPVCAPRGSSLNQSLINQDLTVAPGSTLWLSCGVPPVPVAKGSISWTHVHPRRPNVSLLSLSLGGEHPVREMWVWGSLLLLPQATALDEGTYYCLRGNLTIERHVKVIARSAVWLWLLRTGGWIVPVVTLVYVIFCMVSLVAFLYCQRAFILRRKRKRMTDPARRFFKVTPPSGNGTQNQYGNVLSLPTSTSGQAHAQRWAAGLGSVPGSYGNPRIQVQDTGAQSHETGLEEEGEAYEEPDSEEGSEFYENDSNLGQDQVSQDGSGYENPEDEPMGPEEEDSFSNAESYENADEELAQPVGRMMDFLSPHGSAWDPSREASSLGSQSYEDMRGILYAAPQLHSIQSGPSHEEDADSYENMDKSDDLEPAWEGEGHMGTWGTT

[1] = target: T4, human B-lymphocyte antigen CD19 (human, UniProt P15391 20-556); assay: cell-based or functional assay
T4 sequence (looked up): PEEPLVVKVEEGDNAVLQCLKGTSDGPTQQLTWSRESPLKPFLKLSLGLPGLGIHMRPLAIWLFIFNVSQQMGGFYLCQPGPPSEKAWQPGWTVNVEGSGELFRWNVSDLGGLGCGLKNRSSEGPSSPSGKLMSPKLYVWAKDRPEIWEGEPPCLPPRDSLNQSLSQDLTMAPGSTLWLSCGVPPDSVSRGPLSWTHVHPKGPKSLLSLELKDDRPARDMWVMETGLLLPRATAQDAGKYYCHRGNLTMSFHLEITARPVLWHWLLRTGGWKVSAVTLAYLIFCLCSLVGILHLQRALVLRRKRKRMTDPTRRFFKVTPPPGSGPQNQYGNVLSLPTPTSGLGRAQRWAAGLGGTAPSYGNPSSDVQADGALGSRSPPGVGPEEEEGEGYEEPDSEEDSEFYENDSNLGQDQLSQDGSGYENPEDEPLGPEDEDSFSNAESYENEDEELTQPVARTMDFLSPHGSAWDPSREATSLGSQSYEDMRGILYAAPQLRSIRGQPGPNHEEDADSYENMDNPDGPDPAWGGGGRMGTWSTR

[2] = target: T4, human B-lymphocyte antigen CD19; assay: cell ELISA on human CD19-transfected NIH3T3 cells against untransfected NIH3T3 cells
[3] = target: T4, human B-lymphocyte antigen CD19; assay: FACS binding on Daudi cells, goat anti-mouse RPE detection

B1: Mab381 (antibody, V domains shown)
VH: QVQLQQSGAELVRPGSSMKISCKASGYAFSSYWMNWVKQRPGQGLEWIGQIYPGDGDINYSGKFKGKVTLTADKSSSTAYMQLSSLTSEDSAVYFCARTITTVVGYVMDYWGQGTSVTVSS
VL: DIVMTQSHKFMSTSVGDRVSITCKASQDVGTVVAWYQQKPGQSPKLLIYWASTRHTGVPDRFTGSGSGTDFTLTISNVQSEDLADYFCQQYSSYPYTFGGGTKLEIKR
notes: Murine monoclonal antibody purified from hybridoma 8C3
Rabbit CD19
  binding result: no binding
Cynomolgus CD19
  binding result: no binding
Mouse CD19
  binding result: no binding
[1]
  EC50 of inhibition of Ca2+ influx in anti-IgM activated Ramos cells: 0.37 nM and 56 ng/ml
[2]
  ratio OD NIH3T3 CD 19 to OD NIH3T3 untransfected: 11.4
[3]
  EC50: 1.45 nM
